Experimental data published in article PMC314469, “Protein Interaction Networks by Proteome Peptide Scanning” (PLoS Biology, 2004).

T1: amphyphisin SH3 (AMPH_HUMAN), P49418
T1 chain: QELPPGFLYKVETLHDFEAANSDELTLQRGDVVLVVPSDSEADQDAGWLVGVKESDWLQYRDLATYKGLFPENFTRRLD


Experiments:
[1] = molecular target: T1, amphyphisin SH3 (AMPH_HUMAN), P49418; test: SPOT array
[2] = molecular target: endophilin SH3 (SH3G2_HUMAN), Q99962; test: SPOT array

| Binder | normalised SPOT signal, Boehringer light units (BLU); mean over the file's lines of this peptide [1] | normalised SPOT signal, Boehringer light units (BLU); mean over the file's lines of this peptide [2] |
| --- | --- | --- |
| RAASLRRPRRAASR [Q8WYB4 11-24] | 80.1 | 72.5 |
| RAPPPSRPPPRPSV [Q9H6X2 550-564] | 4340 | 11000 |
| QVFLPPRPPKVLGL [Q9Y3F0 251-265] | 1150 | 2710 |
| QVDPPERPPPPPSD [Q9H292 194-208] | 43.2 | 275 |
| QYNFLRRPQRMPVS [Q9BZC7 2011-2024] | 1220 | 764 |
| QQPGPAKPPTQQVG [Q9Y6V0 366-380] | 62.4 | 30.3 |
| QYRSLPRPAKSSSM [Q9H9S9 177-190] | 220 | 764 |
| QRKNLRRPPSIKGW [Q9NYL5 22-35] | 25.3 | 57.6 |
| QSISLRRPRLASQS [Q9UBH6 665-678] | 56.1 | 208 |
| RAITFRRPSRVHYY [Q96RS3 192-205] | 708 | 33.9 |
| QYGFPRRPPPRGSQ [Q9BQH3 166-180] | 3010 | 2120 |
| ATDSPRRPSRSTGG [Q9H6U6 6-19] | 11300 | 472 |
| RAPSPARPRRPHAS [Q9H8S7 104-117] | 6640 | 2140 |
| QRQRPPRPPPRGTP [Q8WTU5 20-34] | 8800 | 11000 |
| AASSPARPPGLQRS [Q9BQ89 173-187] | 136 | 3950 |
| ATDAPSRPGRLAGR [Q9H6H6 405-418] | 5530 | 147 |
| ATDLPKKPPPPEVT [Q96QH2 123-137] | 68.1 | 46.8 |
| QQKPPKRPPIEASV [Q9BZS0 76-90] | 57.3 | 822 |
| QQPPPRRPPQAPEG [Q9UPY6 301-315] | 744 | 430 |
| RAEVPTKPPLPPAR [Q9UKM7 224-238] | 8090 | 2440 |
| QVKDIRRPERRHSD [Q9UI45 1886-1899] | 534 | 123 |
| QVDPPERPPSPPSD [Q9H4B3 193-207] | 92.2 | 326 |
| RADIPKRPSYVAPL [Q9Y2F3 1400-1413] | 47.6 | 1460 |

Further lines, results first:

| normalised SPOT signal, Boehringer light units (BLU); mean over the file's lines of this peptide [1] | normalised SPOT signal, Boehringer light units (BLU); mean over the file's lines of this peptide [2] | Binder |
| --- | --- | --- |
| 60.7 | 43.1 | QVVGPHRPPALDDR [Q14097 329-343] |
| 47.8 | 520 | QQNLPKRPTSLPLN [Q13873 748-761] |
| 6.6 | 28.4 | QVYVLKRPYVDEFL [O14595 137-150] |
| 936 | 5000 | QVILPPRPPKVLGL [P39188 470-484] |
| 49.9 | 4000 | QSSPPQRPPAPASP [BAC05814 18-32] |
| 36.8 | 106 | QQPLPRRPGHDDGQ [Q16360 104-117] |
| 35.1 | 94.2 | QSTNPKRPLSSANQ [P35670 228-241] |
| 219 | 2140 | RAPRPTRPDKARRL [P39030 37-50] |
| 66.4 | 82.5 | QVIGPHRPPELHDR [P20813 329-343] |
| 3270 | 106 | QQQLLQRPPRDAQQ [O15350 392-405] |
| 40.3 | 64.7 | QVEKLRRPEGASNE [O75381 360-373] |
| 1620 | 240 | QVMVIKRPGRKRKA [P51608 244-257] |
| 42.5 | 0 | QVNHLKRPVSGVGD [Q92610 1091-1104] |
| 64.1 | 29.5 | QRSHFKRPRELEDA [P33897 430-443] |
| 20.7 | 61.3 | ATFSLRRPWTEAGA [P20800 107-120] |
| 37.5 | 93.1 | QSLKIRRPHDYQPL [P26368 222-235] |
| 8910 | 14600 | QVIRPPRPPKVLGL [P39193 571-585] |
| 117 | 423 | QVIHPPRPPKVLGL [P39194 572-585] |
| 19.5 | 58.8 | QVYVLKRPHVDEFL [O15194 206-219] |
